By Kd is commonly meant the free concentration of one partner at which half of the binding sites on the other are occupied at equilibrium, for simple one-to-one binding. A lower Kd goes with higher affinity. A word on the koff: it is the rate constant with which the complex falls apart. In general, kon refers to a measure of how fast the partners come together. A low value points to slow association.

In assay [1] the target is Macaca fascicularis CD3ε/δ-Fc fusion protein (Macaca fascicularis) (UniProt Q95LI8). Kind of assay: SPR Biacore, Fab. For orientation: In SPR one partner is held on a chip, and binding of the other changes the refractive index at the surface.
Assay [2] shares this target. Nature of the assay: SPR Biacore, ratio against human CD3εδ.
For assay [3] the target is unchanged. Kind of assay: SPR single point, hybridoma supernatant.
In assay [4] the target is human CD123 (IL3RA) on cells (human) (UniProt P26951). Nature of the assay: cell-based or functional assay.
For assay [5] the target is unchanged. Nature of the assay: flow cytometry, THP-1 cells, 3 µg antibody. On the technique in general: Flow cytometry measures light scatter and fluorescence of single cells or particles in a stream.
For assay [6] the target is unchanged. Nature of the assay: flow cytometry, TF-1 cells, 3 µg antibody.

Sequence of Macaca fascicularis CD3ε/δ-Fc fusion protein (Macaca fascicularis) (chain, as listed by the source mutant, chain 1 of 2): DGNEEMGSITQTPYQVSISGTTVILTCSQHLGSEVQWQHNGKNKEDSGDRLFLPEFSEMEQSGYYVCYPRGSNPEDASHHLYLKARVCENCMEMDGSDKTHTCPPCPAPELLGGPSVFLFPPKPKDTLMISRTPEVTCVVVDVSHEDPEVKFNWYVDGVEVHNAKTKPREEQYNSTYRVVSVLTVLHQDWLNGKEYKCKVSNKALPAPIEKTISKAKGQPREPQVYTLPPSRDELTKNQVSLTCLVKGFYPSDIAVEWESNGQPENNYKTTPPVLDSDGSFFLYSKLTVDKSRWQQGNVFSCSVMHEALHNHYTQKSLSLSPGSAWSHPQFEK
Sequence of Macaca fascicularis CD3ε/δ-Fc fusion protein (Macaca fascicularis) (Q95LI8 22-105, stated change not applied, chain 2 of 2): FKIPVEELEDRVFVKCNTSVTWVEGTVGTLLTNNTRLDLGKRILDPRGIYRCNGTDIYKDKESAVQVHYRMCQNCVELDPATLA
Sequence of human CD123 (IL3RA) on cells (human) (P26951 19-378): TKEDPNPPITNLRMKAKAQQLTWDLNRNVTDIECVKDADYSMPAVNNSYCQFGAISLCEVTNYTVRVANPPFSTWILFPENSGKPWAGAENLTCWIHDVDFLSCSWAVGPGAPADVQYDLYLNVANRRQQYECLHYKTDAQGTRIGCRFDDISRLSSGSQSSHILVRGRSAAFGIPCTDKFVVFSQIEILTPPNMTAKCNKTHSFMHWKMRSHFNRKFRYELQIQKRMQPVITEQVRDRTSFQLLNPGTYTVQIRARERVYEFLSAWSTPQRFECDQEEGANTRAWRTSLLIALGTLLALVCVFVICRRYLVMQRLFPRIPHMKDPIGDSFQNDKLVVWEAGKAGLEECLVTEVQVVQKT

B1: humanized 4B4 Fab 4B4_11 (VL1_CM3, VH6_BM2) (Fab, V domains shown)
VH: QVQLVESGGRVVQPGRSLRLTCAASGFTFSNAWMHWVRQAPGKQLEWVAQIKARSNNYATYYAESVKGRFTISRDDSKSTIYLQMNSLRAEDTAVYYCRGTYYASKPFDYWGQGTTVTVSS
VL: DVVMTQSPLSLSVTLGQPVSISCRSSQSLVHDNANTYLSWSLQRPGQSPRVLIYKVSNRFSGVPDRFSGSGSGTDFTLKISRVEAEDVGVYYCGQGTQYPFTFGSGTKLEIK
In assay [1], B1 yielded a Kd of 20.4 nM, a koff of 0.00486 s⁻¹ and an on-rate (kon) of 238000 M⁻¹ s⁻¹.

B2: 12D2-E5 Fab (Fab, V domains shown)
VH: EVKLVESGGGLVQPGRSLRLSCAASGFNFYAYWMGWVRQAPGKGLEWIGEIKKDGTTINYTPSLKDRFTISRDNAQNTLYLQMTKLGSEDTALYYCAREERDGYFDYWGQGVMVTVSS
VL: QFVLTQPNSVSTNLGSTVKLSCKRSTGNIGSNYVNWYQQHEGRSPTTMIYRDDKRPDGVPDRFSGSIDRSSNSALLTINNVQTEDEADYFCQSYSSGIVFGGGTKLTVL
For the molecule B2, the Ratio KD(cy)/KD(hu) in assay [2] came to 4.

B3: 12D2-E5 anti-CD3 antibody (hybridoma supernatant) (antibody, V domains shown)
VH: EVKLVESGGGLVQPGRSLRLSCAASGFNFYAYWMGWVRQAPGKGLEWIGEIKKDGTTINYTPSLKDRFTISRDNAQNTLYLQMTKLGSEDTALYYCAREERDGYFDYWGQGVMVTVSS
VL: QFVLTQPNSVSTNLGSTVKLSCKRSTGNIGSNYVNWYQQHEGRSPTTMIYRDDKRPDGVPDRFSGSIDRSSNSALLTINNVQTEDEADYFCQSYSSGIVFGGGTKLTVL
In turn, B3 showed an RU at 25 nM in assay [3] of 5 RU.

B4: CODV-Fab BFX-2B8-F3 × CD3 (bispecific antibody, part only; not given: CD3 arm, linkers, constant domains, part only)
light, part: EIVLTQSPTSMTASPGEQVTITCRASSSINYMHWYQQKPGASPRPWIYETSKLASGVPDRFSGSASGTSYSLTINNMEAEDAATYYCQQWNYPSWTFGGGTKLELK
heavy, part: EVQLVESGGGLVQPGRSLKLSCAASGFTFSDYNMAWVRQAPKKGLEWVATILYDGGRTYYRGSVKGRFTISRDNAKSTLYLRMDSLRSEDTATYYCATHSRGTDYFDYWGQGVMVTVSS
B4 had an EC50 [ng/ml] geomean, cytotoxic assay on THP-1 in assay [4] of 107 ng/mL.

B5: CODV-Fab BFX-6B10-E4 × CD3 (bispecific antibody, part only; not given: CD3 arm, linkers, constant domains, part only)
light, part: NIVMTQSPKSMSISVGDRVTMNCKASQTVGNNIAWYQQKPGLSPQLLIDYASNRYTGVPNRFTGGGYGTDFILTINSVQAEDAAFYYCQRMYNSPTFGGGTKLELK
heavy, part: EVQLVESGGGLVQPGRSLKLSCAASGFTFSHYNMAWVRQAPKKGLEWVATITYDDHSTYYRDSVKGRFTISRDTAKSTLYLQMDSLRSEDTATYYCARLVNYAFAYWGQGTLVTVSS
For the molecule B5, the EC50 [ng/ml] geomean, cytotoxic assay on THP-1 in assay [4] was found to be 39.7 ng/mL.

B6: CODV-Fab BFX-2F8-D6 × CD3 (bispecific antibody, part only; not given: anti-CD3 arm, linkers, constant domains, V domains shown, not shown: another chain or arm of the molecule; a dimerising Fc or GST; small tags and cut ends)
VH: QVQLKESGPGLVQPSQTLSLTCTVSGFSLTSYGVSWVRQPPGKGLEWIATISSAGSTYYDLVLKSRLSITRDTSKSQVFLKVHSLQTEDTAIYLCARDAPVFNYGSYNAMDSWGQGTSVTVSS
VL: DIQMTQSPSFLSATVGDRVTINCKASQNINKYLNWYQQKLGEAPKRLIYNTNSLQTGIPSRFSGSGSGTDYTLTISSLQPEDVATYFCLQHKSGLTFGSGTKLEIK
With B6, the % FITC positive Cells in assay [5] was 24%; in assay [6] it was 9.3%.

B7: CODV-Fab BFX-3E3-D3 × CD3 (bispecific antibody, part only; not given: CD3 arm, linkers, constant domains, part only)
light, part: QFVLTQPNSVSTNLGSTVKLSCKRNTGNIGSNYVNWYQQHEGRSPTTMIYRDDKRPDGVPDRFSGSIDRSSNSALLTINNVQTEDEADYFCQSYSSGINIIFGGGTKLTVL
heavy, part: QVQLQESGPGLVQPSQTLSLTCTVSGFSLTTYDVHWVRQPPGKGLEWMGRIQNGGITDYNSALKSRLIISRDTSKSQVFLKMNSVQTEDTAMYFCAKTGSYFYAFDHWGQGTLVTVSS
As to B7, the % FITC positive Cells in assay [5] came to 99%; in assay [6], 31.6%. In assay [4], the EC50 [ng/ml] geomean, cytotoxic assay on THP-1 worked out at 12.2 ng/mL.

B8: CODV-Fab BFX-3B10-E6 × CD3 (bispecific antibody, part only; not given: CD3 arm, linkers, constant domains, part only)
light, part: DVLMTQTPVSLPVSLGGQVSISCRSSQSLVHSDGDTYLHWYLQKPGQSPQLLIYRVSNRFSGVPDRFSGSGSGTDFTLKISRVEPEDLGLYYCLQTTHFPPWTFGGGTKLEMK
heavy, part: QVQLQQSGPELRRPGSSVRLSCKASGYRIKDFLIHWIKNRPEHGLEWIGWIDPEDGETKYAQKFQTKATLTADTSSNTAYMQLSSLTSEDTATYFCARWGDVYYGLMRGHVMDAWGQGTSVTVSS
In assay [4], B8 registered an EC50 [ng/ml] geomean, cytotoxic assay on THP-1 of 429 ng/mL.

B9: 5B1-G2 anti-CD3 antibody (hybridoma supernatant) (antibody, V domains shown)
VH: EVQVVETGGSLVQPGKSLKLTCATSGFSFSNAWMHWVRQSPEKQLEWVAQIKDKANNYATYYAESVKGRFTISRDDSKGSIYLQMNSLKEEDTAVYYCRGLYYGLFPSDYWGQGVMVTVSS
VL: DVVMTQTPVSLSVSLGGQVSISCRSSQSLVHNNGNTYLSWYLLKPGQSPQLLIYKVSNRFSGISDRFSGGGSGTDFTLKISRLEPDDLGIYYCGQGTQYPFTFGSGTKLEIK
For the molecule B9, the RU at 25 nM in assay [3] was determined as 0.5 RU.

B10: 5B1-G2 Fab (Fab, V domains shown)
VH: EVQVVETGGSLVQPGKSLKLTCATSGFSFSNAWMHWVRQSPEKQLEWVAQIKDKANNYATYYAESVKGRFTISRDDSKGSIYLQMNSLKEEDTAVYYCRGLYYGLFPSDYWGQGVMVTVSS
VL: DVVMTQTPVSLSVSLGGQVSISCRSSQSLVHNNGNTYLSWYLLKPGQSPQLLIYKVSNRFSGISDRFSGGGSGTDFTLKISRLEPDDLGIYYCGQGTQYPFTFGSGTKLEIK
In the case of B10, in assay [2], the Ratio KD(cy)/KD(hu) amounted to 1.

B11: CODV-Fab BFX-9F6-G3 × CD3 (bispecific antibody, part only; not given: anti-CD3 arm, linkers, constant domains, V domains shown, not shown: another chain or arm of the molecule; a dimerising Fc or GST; small tags and cut ends)
VL: DIQMTQSPASLSASLGETVTIECRPSEDIHSNVAWYQQKPGNSPQLLIYDASNLADGVPSRFSGSGSGTQYSLKINSLQSEDVASYFCHQYNIYPYTFGSGTKLELK
VH: QVQLQESGPTLVKPGDSVKMSCKASGYTFTDYIIHWVKQSHGKSLEWIGYINPYSDGTNYNEKFKSKATLTVDKSTSTAYMEFSRLTSEDSAIYFCALNYGSYYAMDAWGQGTSVTVSS
For the molecule B11, the % FITC positive Cells was 99.7% in assay [5] and 60.7% in assay [6]. The EC50 [ng/ml] geomean, cytotoxic assay on THP-1 in assay [4] came to 13.9 ng/mL.

B12: CODV-Fab BFX-9B8-G6 × CD3 (bispecific antibody, part only; not given: anti-CD3 arm, linkers, constant domains, V domains shown, not shown: another chain or arm of the molecule; a dimerising Fc or GST; small tags and cut ends)
VL: DIVMTQSPSSLAVSAGETVTINCKSSQSFLSSGDERNYVAWYQHKPGQSPKLLIYWASTRHSGVPDRFIGSGSGTDFTLTISSVQAEDLAIYYCQQYYDTPLTFGSGTKLEIK
VH: EVKLQESGPSLVQSSQTLSLTCTVSGFSLTSYHIHWVRQPPGKGLEWMGVMWSDGDTSYSSALKSRLSISRDTSQSQVFLKMNSLQTEDTATYYCARGDYSSYIYLWFAYWGQGTLVTVSS
For the molecule B12, the % FITC positive Cells in assay [5] turned out to be 48.8%; in assay [6], 31.1%. Moreover, the EC50 [ng/ml] geomean, cytotoxic assay on THP-1 in assay [4] is 106 ng/mL.

B13: CODV-Fab BFX-9D7-C8 × CD3 (bispecific antibody, part only; not given: anti-CD3 arm, linkers, constant domains, V domains shown, not shown: another chain or arm of the molecule; a dimerising Fc or GST; small tags and cut ends)
VL: DIVMTQSPSSLAVSEGETVTINCKSSQSFLSSGDGKNYVAWYQYKPGQSPKLLIYWASTRQSGVPDRFIGSGSGTDFTLTISTVQAEDLAIYYCQQYYDTPLTFGSGTKLEIK
VH: EVKLQESGPSLVQSSQTLSLTCTVSGFSLTSYHIHWVRQTPGKGLEWMGVMWSDGDTSYNSALKSRLSISRDTSQSQVFLKMNSLQTEDTATYYCARGYYSSYLYLWFAYWGQGTLVTVSS
For the molecule B13, the % FITC positive Cells turned out to be 88.7% in assay [5] and 50.2% in assay [6]. In addition, the EC50 [ng/ml] geomean, cytotoxic assay on THP-1 in assay [4] was 86.3 ng/mL.

B14: CODV-Fab 7G3 × OKT3 (bispecific antibody, part only; not given: OKT3 arm, linkers, constant domains, part only)
light, part: DFVMTQSPSSLTVTAGEKVTMSCKSSQSLLNSGNQKNYLTWYLQKPGQPPKLLIYWASTRESGVPDRFTGSGSGTDFTLTISSVQAEDLAVYYCQNDYSYPYTFGGGTKLEIK
heavy, part: EVQLQQSGPELVKPGASVKMSCKASGYTFTDYYMKWVKQSHGKSLEWIGDIIPSNGATFYNQKFKGKATLTVDRSSSTAYMHLNSLTSEDSAVYYCTRSHLLRASWFAYWGQGTLVTVSA
B14: in assay [4], the Activity EC50 [ng/ml], cytotoxic assay on THP-1 with human T cells was determined as 16 ng/mL.

Source of the values: patent US20210292423A1.
